In patent US6544504B1, “Combined use of interleukin 10 and methotrexate for immuno-modulatory therapy” (Schering Corporation, priority 1999, dated 2003):
“Also recorded” adds a separate entry of the source.

How the values were obtained:
Assay type in all cases: in vivo, human
[1] = tested on: patients with active rheumatoid arthritis; test: Rheumatoid arthritis Disease Activity / ACR response in the IL-10 plus MTX study
Method: (§1) A multinational, multicenter, sequentially randomized, double-blind, placebo-controlled, rising multiple-dose study of IL-10 plus methotrexate (MTX) treatment was completed in patients with active rheumatoid arthritis.
(§2) Fifty patients were to receive one of five dosing regimens of IL-10 (SC) (1 μg/kg daily, 4 μg/kg daily, 8 μg/kg three times a week [TIW], 8 μg/kg daily and 20 μg/kg TIW) or placebo for 28 days, in addition to stable dosing with MTX (Treatment Phase). The patients were followed for 8 weeks after the end of IL-10 dosing (Follow-up Phase). Patients received MTX at therapeutic doses for at least 4 months prior to study entry. The dose of MTX was 12.5-25 mg/week (oral, subcutaneous or intramuscular) and remained constant throughout the study (Screening, Treatment and Follow-up Phases).
(§3) Patients were sequentially enrolled into the study in dose cohorts starting with the lowest dose of IL-10. Safety was assessed for each dose level prior to progressing to the next higher dose. Ten patients were assessed at each of the IL-10 dose cohorts: 8 received IL-10 and 2 received placebo (4:1). There was no replacement of patients.
(§4) The primary objective was to evaluate, in a dose-escalating manner, the safety and tolerance of IL-10 (SC) therapy given daily or TIW plus MTX (oral/intramuscular/SC) over a 28 day period to patients with active rheumatoid arthritis. The secondary objectives were to evaluate the effect of IL-10 on measures of rheumatoid arthritis Disease Activity, and to determine changes in the circulating levels of soluble p55 and p75 TNF receptors and IL-1 receptor antagonist. Protocol-defined responders were defined as those patients with at least 20% ACR criteria, i.e. at least 20% improvement in number of tender joints, number of swollen joints and in at least 3 of 5 RA Disease Activity measures (i.e. subject's assessment of pain, disease activity or physical function and physician's global assessment of disease activity.
Fifty patients were enrolled and sequentially randomized to receive one of the five dosing regimens of IL-10 (SC) (1 μg/kg daily, 4 μg/kg daily, 8 μg/kg TIW, 8 μg/kg daily and 20 μg/kg TIW) or placebo which formed the intent-to-treat population (ITT). Mean duration of treatment was at least 26 days for each of the treatment groups. The treatment groups were similar in demographic characteristics except for slight differences in age. Baseline characteristics of RA Disease Activity were similar for treatment groups.

[2] = tested on: patients with active rheumatoid arthritis; test: Safety and tolerance study of IL-10 plus stable MTX in active rheumatoid arthritis
Method: as §1, §2, §3
as §4, with “activity. […]” for “activity.”

[3] = tested on: TNFα, IL-1β, soluble TNF p55 and p75 receptors, IL-1 receptor antagonist; test: Ex-vivo induced proinflammatory cytokines and circulating soluble TNF receptors / IL-1 receptor antagonist; settings: nearly all IL-10 treatment groups compared with placebo, plus MTX
Method: as §2
The primary objective was to evaluate, in a dose-escalating manner, the safety and tolerance of IL-10 (SC) therapy given daily or TIW plus MTX (oral/intramuscular/SC) over a 28 day period to patients with active rheumatoid arthritis. The secondary objectives were to evaluate the effect of IL-10 on measures of rheumatoid arthritis Disease Activity, and to determine changes in the circulating levels of soluble p55 and p75 TNF receptors and IL-1 receptor antagonist. […]

[4] = each IL-10 dose group plus MTX versus placebo plus MTX

IL-10: a cytokine produced by T lymphocytes; protein with sequence substantially identical to mature IL-10; most preferably recombinant human IL-10
effects on rheumatoid arthritis Disease Activity (conclusion) ([1]; IL-10 in combination with MTX, greatest for 8 μg/kg TIW, 8 μg/kg daily and 20 μg/kg TIW): may have beneficial effects
protocol-defined response (percentage of responders) ([1]; after 28 days of dosing versus baseline, ITT population, compared with placebo plus MTX): trend toward a greater percentage of responders
mean change from baseline for individual clinical measures of rheumatoid arthritis disease activity ([1]; after 28 days, compared with placebo plus MTX): generally showing a greater percentage of responders than in placebo group
percent of patients having a 20% improvement in disease activity (ACR 20) [1, 4]: higher for each of the IL-10 treatment groups than for the placebo group
percent of patients having a 50% improvement in disease activity (ACR 50) [1, 4]: higher for each of the IL-10 treatment groups than for the placebo group
safety and tolerance ([2]; IL-10 SC 1-20 μg/kg daily or TIW for 28 days plus stable MTX 12.5-25 mg/week): generally well tolerated; also recorded: safe and well tolerated
most frequently reported adverse events ([2]; IL-10 SC for 28 days plus stable MTX): headache, injection site reaction, nausea, musculoskeletal pain, with no dose-response relationship seen
anti-dsDNA or anti IL-10 antibodies ([2]; IL-10 SC for 28 days plus stable MTX, any time during the study): No anti-dsDNA or anti IL-10 antibodies were present
circulating serum levels of soluble TNF p55 and TNF p75 receptors and IL-1 receptor antagonists [3]: trend towards increased circulating serum levels
production of ex-vivo induced proinflammatory cytokines (TNFα and IL-1β) [3]: trend towards decreased production
